In FireProtDB (doi:10.1021/bi00369a002):
“And” between values parts separate entries of the source, which are not always exact repeats. Equal values may be shown once.

Conditions: Escherichia coli (strain K12); pH 7.8; 25 °C; Urea; Absorbance; Potassium phosphate 10 mM; transition: 3; whole UniProt chain shown

B1: Tryptophan synthase alpha chain wild type, P0A877 (protein)
chain: MERYESLFAQLKERKEGAFVPFVTLGDPGIEQSLKIIDTLIEAGADALELGIPFSDPLADGPTIQNATLRAFAAGVTPAQCFEMLALIRQKHPTIPIGLLMYANLVFNKGIDEFYAQCEKVGVDSVLVADVPVEESAPFRQAALRHNVAPIFICPPNADDDLLRQIASYGRGYTYLLSRAGVTGAENRAALPLNHLVAKLKEYNAAPPLQGFGISAPDQVKAAIDAGAAGAISGSAIVKIIEQHINEPEKMLAALKVFVQPMKAATRS
For B1, the denaturant m value was 2.2 kcal/mol/M and 1.2 kcal/mol/M and the “denaturant midpoint (higher = more stable)” value was 2.62 M and 4.18 M.
